According to US20150320880A1, “ANTIBODY DRUG CONJUGATES” (NOVARTIS AG, priority 2013, published 2015):

T1: Cynomolgus monkey cKIT D1-5 (residues 25-520, C-terminal His tag) (cynomolgus monkey, UniProt P10721 25-520 (human entry))
T1 construct: the signal peptide was not part of the protein in the assay; also called cyno cKIT; cynomolgus monkey ECD
T1 chain: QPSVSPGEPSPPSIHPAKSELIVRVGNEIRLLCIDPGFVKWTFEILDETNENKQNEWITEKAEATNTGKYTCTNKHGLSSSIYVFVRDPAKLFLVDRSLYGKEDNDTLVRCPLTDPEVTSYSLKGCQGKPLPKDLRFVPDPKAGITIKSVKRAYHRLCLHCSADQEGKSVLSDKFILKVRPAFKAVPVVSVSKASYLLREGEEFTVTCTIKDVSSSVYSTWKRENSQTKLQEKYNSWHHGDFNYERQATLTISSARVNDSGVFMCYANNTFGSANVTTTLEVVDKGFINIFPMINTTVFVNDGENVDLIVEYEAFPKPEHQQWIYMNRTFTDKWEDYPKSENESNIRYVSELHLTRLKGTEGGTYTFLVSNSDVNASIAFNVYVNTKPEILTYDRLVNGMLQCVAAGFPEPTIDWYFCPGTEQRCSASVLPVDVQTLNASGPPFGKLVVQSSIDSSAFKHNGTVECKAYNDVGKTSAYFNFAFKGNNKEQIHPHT

T2: Mouse cKIT ECD, C-terminal 6x His (Sino Biological Inc, catalog number 50530-M08H) (mouse, UniProt P05532 25-527)
T2 construct: extracellular domain; Bought protein
T2 sequence (looked up): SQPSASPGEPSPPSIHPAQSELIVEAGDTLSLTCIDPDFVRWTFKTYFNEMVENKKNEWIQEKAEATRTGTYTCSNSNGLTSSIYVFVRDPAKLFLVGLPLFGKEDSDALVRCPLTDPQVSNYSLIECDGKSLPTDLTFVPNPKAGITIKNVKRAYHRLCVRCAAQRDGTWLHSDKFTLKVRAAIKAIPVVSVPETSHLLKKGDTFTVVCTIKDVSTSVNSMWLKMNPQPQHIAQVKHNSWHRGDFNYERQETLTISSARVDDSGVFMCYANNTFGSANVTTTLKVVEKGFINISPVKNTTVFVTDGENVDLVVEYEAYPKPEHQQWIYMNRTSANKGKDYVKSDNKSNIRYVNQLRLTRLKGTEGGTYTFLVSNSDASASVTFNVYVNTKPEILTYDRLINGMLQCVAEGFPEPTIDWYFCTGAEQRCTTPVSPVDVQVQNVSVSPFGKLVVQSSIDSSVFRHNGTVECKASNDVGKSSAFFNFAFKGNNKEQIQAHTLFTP

T3: Rat cKIT D1-5 (residues 25-526, C-terminal mFc) (rat)
T3 construct: The entry includes the linker and mouse Fc tag; also called rat cKIT-mFc
T3 chain: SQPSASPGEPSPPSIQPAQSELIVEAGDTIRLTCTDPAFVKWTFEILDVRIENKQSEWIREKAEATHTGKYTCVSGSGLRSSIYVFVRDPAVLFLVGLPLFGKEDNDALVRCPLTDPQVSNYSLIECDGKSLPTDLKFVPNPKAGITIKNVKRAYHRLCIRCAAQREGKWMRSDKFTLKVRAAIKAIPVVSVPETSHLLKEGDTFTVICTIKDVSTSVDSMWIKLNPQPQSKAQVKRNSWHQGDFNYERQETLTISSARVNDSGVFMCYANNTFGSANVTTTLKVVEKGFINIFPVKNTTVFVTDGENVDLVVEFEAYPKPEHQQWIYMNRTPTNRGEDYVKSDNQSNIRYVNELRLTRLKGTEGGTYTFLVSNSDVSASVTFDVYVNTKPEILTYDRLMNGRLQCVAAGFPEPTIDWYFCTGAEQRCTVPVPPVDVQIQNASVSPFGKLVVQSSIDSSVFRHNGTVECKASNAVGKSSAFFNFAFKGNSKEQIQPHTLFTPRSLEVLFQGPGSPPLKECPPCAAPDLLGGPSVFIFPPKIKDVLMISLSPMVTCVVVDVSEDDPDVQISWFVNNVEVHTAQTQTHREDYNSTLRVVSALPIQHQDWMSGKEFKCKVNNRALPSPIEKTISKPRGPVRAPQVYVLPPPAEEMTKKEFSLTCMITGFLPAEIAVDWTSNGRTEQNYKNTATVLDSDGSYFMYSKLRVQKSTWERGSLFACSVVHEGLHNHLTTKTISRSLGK

B1: NEG086 (antibody, human IgG1, kappa, V domains shown)
VH: EVQLVESGGGLVQPGGSLRLSCAASGFTFSDYYMAWVRQAPGKGLEWVANINQIAGSTYYVDSVQGRFTISRDNAKNSLYLQMNSLRAEDTAVYYCARGDYYGTTYWYFDVWGQGTTVTVSS
VL: DIQMTQSPSSLSASVGDRVTITCRASQSISSYLNWYQQKPGKAPKLLIYYTSRLQSGVPSRFSGSGSGTDFTLTISSLQPEDFATYYCQQGRRLWSFGGGTKVEIKR
notes: Humanized, optimized variant of 9P3; human IgG1 kappa
B2: NEG026: anti-cKIT antibody of Table 1; VH SEQ ID NO 46, VL SEQ ID NO 55 (antibody, V domains shown)
VH: EVQLVESGGGLVQPGGSLRLSCAASGFTFSDYYMAWVRQAPGKGLEWVANINQNTGSTYYVDSVQGRFTISRDNAKNSLYLQMNSLRAEDTAVYYCARGDYYGTTYWYFDVWGQGTTVTVSS
VL: EIVMTQSPATLSLSPGERATLSCRASQDISNYLNWYQQKPGQAPRLLIYYTSRLQSGIPARFSGSGSGTDYTLTISSLEPEDFAVYYCQQGKKLWSFGGGTKVEIK
B3: NEG086: anti-cKIT antibody of Table 1; VH SEQ ID NO 100, VL SEQ ID NO 109 (antibody, V domains shown)
VH: EVQLVESGGGLVQPGGSLRLSCAASGFTFSDYYMAWVRQAPGKGLEWVANINQIAGSTYYVDSVQGRFTISRDNAKNSLYLQMNSLRAEDTAVYYCARGDYYGTTYWYFDVWGQGTTVTVSS
VL: DIQMTQSPSSLSASVGDRVTITCRASQSISSYLNWYQQKPGKAPKLLIYYTSRLQSGVPSRFSGSGSGTDFTLTISSLQPEDFATYYCQQGRRLWSFGGGTKVEIK
B4: NEG087: anti-cKIT antibody of Table 1; VH SEQ ID NO 118, VL SEQ ID NO 127 (antibody, V domains shown)
VH: EVQLVESGGGLVQPGGSLRLSCAASGFTFSDYYMAWVRQAPGKGLEWVASINQNTGSTYYLDSVRGRFTISRDNAKNSLYLQMNSLRAEDTAVYYCARGDYYGTTYWYFDVWGQGTTVTVSS
VL: DIQMTQSPSSLSASVGDRVTITCRASQSISSYLNWYQQKPGKAPKLLIYYTSRLQSGVPSRFSGSGSGTDFTLTISSLQPEDFATYYCQQGRRLWSFGGGTKVEIK
B5: NEG027: anti-cKIT antibody of Table 1; VH SEQ ID NO 64, VL SEQ ID NO 73 (antibody, V domains shown)
VH: EVQLVESGGGLVQPGGSLRLSCAASGFTFSDYYMAWVRQAPGKGLEWVASINQNTGSTYYLDSVRGRFTISRDNAKNSLYLQMNSLRAEDTAVYYCARGDYYGTTYWYFDVWGQGTTVTVSS
VL: EIVMTQSPATLSLSPGERATLSCRASQDISNYLNWYQQKPGQAPRLLIYYTSRLQSGIPARFSGSGSGTDYTLTISSLEPEDFAVYYCQQGKKLWSFGGGTKVEIK
B6: NEG085-MCC-DM1 (antibody, human IgG1, kappa, V domains shown)
VH: EVQLVESGGGLVQPGGSLRLSCAASGFAFSGYYMAWVRQAPGKGLEWVANINYPGSSTYYLDSVKGRFTISRDNAKNSLYLQMNSLRAEDTAVYYCARGDYYGTTYWYFDVWGQGTTVTVSS
VL: DIQMTQSPSSLSASVGDRVTITCRASQSISSYLNWYQQKPGKAPKLLIYYTSRLQSGVPSRFSGSGSGTDFTLTISSLQPEDFATYYCQQGRRLWSFGGGTKVEIKR
modifications: DM1 linked through the MCC (SMCC) linker to primary amines of the antibody, sites not stated; DM1 linked through the MCC (SMCC) linker to primary amines of the antibody, sites not stated; average MAR 3.5 (Table 7)
notes: Antibody drug conjugate of NEG085
B7: NEG024 (antibody, human IgG1, kappa, V domains shown)
VH: EVQLVESGGGLVQPGGSLRLSCAASGFTFSDYYMAWVRQAPGKGLEWVANINQIAGSTYYLDSVRGRFTISRDNAKNSLYLQMNSLRAEDTAVYYCARGDYYGTTYWYFDVWGQGTTVTVSS
VL: EIVMTQSPATLSLSPGERATLSCRASQDISNYLNWYQQKPGQAPRLLIYYTSRLQSGIPARFSGSGSGTDYTLTISSLEPEDFAVYYCQQGKKLWSFGGGTKVEIKR
notes: as for B1
B8: NEG085 (antibody, human IgG1, kappa, V domains shown)
VH: EVQLVESGGGLVQPGGSLRLSCAASGFAFSGYYMAWVRQAPGKGLEWVANINYPGSSTYYLDSVKGRFTISRDNAKNSLYLQMNSLRAEDTAVYYCARGDYYGTTYWYFDVWGQGTTVTVSS
VL: DIQMTQSPSSLSASVGDRVTITCRASQSISSYLNWYQQKPGKAPKLLIYYTSRLQSGVPSRFSGSGSGTDFTLTISSLQPEDFATYYCQQGRRLWSFGGGTKVEIKR
notes: Humanized, optimized variant of 9P3; human IgG1 kappa; also called unconjugated NEG085

Columns and labels:
[1] = biological target: T4, Human cKIT D1-5 (human cKIT tr. variant 2, residues 26-520, C-terminal His tag) (human, UniProt P10721 26-524); assay: SPR (Biacore T100), CM5 chip, method as in Example 7; unconjugated antibody
T4 construct: also called human cKIT ECD; Human c-Kit ECD
T4 sequence (P10721 other isoform, or with tags, fused parts or gaps mutant limits assumed): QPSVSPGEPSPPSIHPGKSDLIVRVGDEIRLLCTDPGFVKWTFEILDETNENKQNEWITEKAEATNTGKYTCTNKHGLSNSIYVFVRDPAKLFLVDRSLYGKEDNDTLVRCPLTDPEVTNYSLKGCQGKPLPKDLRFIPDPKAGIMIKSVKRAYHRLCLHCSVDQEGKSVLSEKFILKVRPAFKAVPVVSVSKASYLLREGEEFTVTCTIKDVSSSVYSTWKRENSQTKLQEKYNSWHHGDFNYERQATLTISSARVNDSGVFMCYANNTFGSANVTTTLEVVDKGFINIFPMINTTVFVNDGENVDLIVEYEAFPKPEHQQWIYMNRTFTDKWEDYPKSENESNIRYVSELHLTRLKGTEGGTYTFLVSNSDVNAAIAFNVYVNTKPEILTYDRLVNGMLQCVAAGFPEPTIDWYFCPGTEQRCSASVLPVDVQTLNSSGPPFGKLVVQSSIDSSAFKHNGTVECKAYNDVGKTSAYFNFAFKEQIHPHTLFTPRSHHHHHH

[2] = biological target: T1, Cynomolgus monkey cKIT D1-5 (residues …); assay: SPR (Biacore 2000), antibody captured on anti-human Fc, cKIT ECD as analyte, 25 C, 1:1 fit
[3] = biological target: T4, Human cKIT D1-5 (human cKIT tr. variant …); assay: as above
[4] = biological target: T2, Mouse cKIT ECD, C-terminal 6x His (Sino …); assay: SPR (Biacore 2000), antibody captured on anti-human Fc
[5] = biological target: T3, Rat cKIT D1-5 (residues 25-526, …); assay: as above
[6] = biological target: mouse cKIT ECD; assay: SPR (Biacore 2000) affinity measurement; type: binding; settings: 25° C.
Procedure: (§1) Affinity of the antibodies to cKIT species orthologues and also to cKIT was determined using SPR technology using a Biacore® 2000 instrument (GE Healthcare, Pittsburgh, Pa.) and with CM5 sensor chips.
(§2) Briefly, HBS-P (0.01 M HEPES, pH 7.4, 0.15 M NaCl, 0.005% Surfactant P20) supplemented with 2% Odyssey® blocking buffer (Li-Cor Biosciences, Lincoln, Nebr.) was used as the running buffer for all the experiments. The immobilization level and analyte interactions were measured by response unit (RU). Pilot experiments were performed to test and confirm the feasibility of the immobilization of the anti-human Fc antibody (Catalog number BR100839, GE Healthcare, Pittsburgh, Pa.) and the capture of the test antibodies.
(§3) For kinetic measurements, the experiments were performed in which the antibodies were captured to the sensor chip surface via the immobilized anti-human Fc antibody and the ability of the cKIT proteins to bind in free solution was determined Briefly, 25 μg/ml of anti-human Fc antibody at pH 5 was immobilized on a CM5 sensor chip through amine coupling at flow rate of 5 μl/minute on all two flow cells to reach 10,500 RUs. 0.1-1 μg/ml of test antibodies were then injected at 10 μl/min for 1 minute. Captured levels of the antibodies were generally kept below 200 RUs. Subsequently, 3.125-50 nM of cKIT receptor extracellular domains (ECD) were diluted in a 2-fold series and injected at a flow rate of 40 μl/min for 3 min over both reference and test flow cells. Table of tested ECDs is listed below. Dissociation of the binding was followed for 10 min. After each injection cycle, the chip surface was regenerated with 3 M MgCl2 at 10 μl/min for 30 s.

[7] = biological target: T5, human cKIT ECD (Homo sapiens, UniProt P10721); assay: SPR (Biacore 2000) affinity measurement; type: binding; settings: 25° C.
T5 construct: Human cKIT tr. variant 2, residues 26-520-TAG; made in house; host or cells: HEK293 derived cell lines (293FS), transient transfection
T5 sequence (P10721 with tags, fused parts or gaps isoform P10721-2): as the sequence (P10721 other isoform, or with tags, fused parts or gaps mutant limits assumed) above
Procedure: as §1, §2, §3

[8] = biological target: T4, Human cKIT D1-5 (human cKIT tr. variant …); assay: SPR (Biacore T100), CM5 chip, method as in Example 7; MCC-DM1 conjugate

Molecule	Kd [1] [nM]	Kd [2] [nM]	Kd [3] [nM]	binding result [4]	binding result [5]	Affinity mouse cKIT (nM) [6]	Affinity human cKIT (nM) [7]	Kd [8] [nM]
B1	1.4	1.34	1.44	no binding (tested: 3.125-50 nM of cKIT ECD injected)	no binding (tested: 3.125-50 nM of cKIT ECD injected)			
B2						Not reactive		
B3						Not reactive	nanomolar level	
B4						Not reactive	nanomolar level	
B5						Not reactive	nanomolar level	
B6								5.2
B7	1.3	1.15	1.31	no binding (tested: 3.125-50 nM of cKIT ECD injected)	no binding (tested: 3.125-50 nM of cKIT ECD injected)			
B8	4.2	6.14	8.4	no binding (tested: 3.125-50 nM of cKIT ECD injected)	no binding (tested: 3.125-50 nM of cKIT ECD injected)			
